In the nanobody polyreactivity screen of Harvey et al. (2022):

Assay: yeast display, Sf9 membrane polyspecificity reagent, FACS + sequencing; frameworks hold sequencing errors
Method in brief: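 Genes from sorted yeast were amplified by colony PCR, read by MiSeq 2 × 250 sequencing and filtered on CDR length. These cells carried a synthetic nanobody library in Saccharomyces cerevisiae BJ5465 and were sorted by FACS into low and high (top ~1%) gates on anti-HA and streptavidin fluorescence. Polyreactivity is labelled according to the gate of origin.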

| Sequence | polyreactivity (PSR sort gate) |
| --- | --- |
| QVQLVESGAGLVQAGGSLRLICAASGLTFIYYAMGWYRQAPGKERELVAAISVSGGSTYYADSVKGRFTISRDNAKNTVYLQMNRLQREDTAVYYCAADWLVHKPRYQYSFDFWGQVTQVTVSS | low polyreactivity |
| QVQLVESGAGLVQAGGSLRLSCAASGFIFRQYAMGWYRQAPGQERELVAAISWSGGSTYYADSVKGRFTISRDNAKNTVYLQKNSLKPEDTAVYYCNVLTPPTDYDYWGQGTQVTVSS | high polyreactivity |
| QVQLVESGAGLVQAGGSLRLSCAASGFIFVKYAMGWYRQAPGKERELVAAISRSGGRTYYADSVKGRFTISRDNAKNNVYLQMNSLKPEDTAVYYCATDYYEDWRGYEDYWYRPYDYWGQGTQVTVSS | high polyreactivity |
| QVQLVESGAGLVQAGGSLRLSCAASGFIFYYYAMGRYRPAPGKERELVAAIDSSGGDTYFADSVKGRFSISRDHAKNTVYLQMNSLKPEDTAVYYCNARQRLISLYGNRLTYGYWGQGTQVTVSS | high polyreactivity |
| QVQLVESGAGLVQAGGSLRLSCAASGFTFDQYAMGWYRPATGKERELVAGISWGGGTTYYADSVKGRFTISRDNAKNTVYLHMNSLKPEDTAVYYCAAVRPGYPYYGSDYWGPGTQVTVSS | low polyreactivity |
| QVQLVESGAGLVQAGGSLRLSCAASGFTFFGDYAMGWYRQAPGKERELVAAIDWSGGTTYYADSVKGRFTISRDNAKNTVYLQMNSLKPEDTAVYYCARRYYYSYPPQEDDYWGQGTQVTVSS | high polyreactivity |
| QVQLVESGAGLVQAGGSLRLSCAASGFTFPYYAMGWYRQAPGKERELVAAINYSGSSTDYADSVKGRFTISRDNAKNTVYLQMNSLKPEDTAVYYCAATPAYYYQAVTEDDYWGQGTHVTVSS | high polyreactivity |
| QVQLVESGAGLVQAGGSLRLSCAASGFTFSRNAMGWYRPAPGKERELVASISGRGGRTYYADSVKGRFTISRDNAKKTVYLQMNSLKPEATAVYFCAARWRQRKSVRYGQQGYDYWGQGTQVTVSS | high polyreactivity |
| QVQLVESGAGLVQAGGSLRLSCAASGFTFYDYAMGWYRQAPGKERELVAAISRGGGSTYYADSVKGRFTISRDNAKNTVYLQMNSLKPEDTAVYYCNAALTRVSRFWGGDYYYWGQGTQVTVSS | high polyreactivity |
| QVQLVESGAGLVQAGGSLRLSCAASGGTFLYYAMGWYRQAPGKERELVAVINSNGGSTYYADSVKGRFTISRDNAKNTVYLQMNSLKPEDTAVYYCAADYQSYVYIGYGYWGQGTQVTVSS | low polyreactivity |
| QVQLVESGAGLVQAGGSLRLSCAASGIIFDWYTMGWYRQAPGKERELVAAISWRGGRTYYADSVKGRFTISRDNAKNTVYLQMNSLKPEDTAVYYCAAEAPVQPFYVFNTGIYELDYWGQGTQVTVSS | low polyreactivity |
| QVQLVESGAGLVQAGGSLRLSCAASGIISYRNGMGWYRQAPGKERELVASISKRADSTYYADSVKGGFTLSRDNAKNTVYLQMNSLKPEDTAVYYCAANFRDWHRYYPAGYLRRGYWGQGTQVTVSS | high polyreactivity |
| QVQLVESGAGLVQAGGSLRLSCAASGNTFYQYAMGWYRQAPGKERELVAAIDWSGGSTYADSVKGRFTISRDNAKNTVYLQMNSLKPEDTAVYYCEKYTYDYWGQGTQVTVSS | low polyreactivity |
| QVQLVESGAGLVQAGGSLRLSCAASGRTFRYSAMGWYRQAPGKERELVAAISSRGNTYYADSVKGRFTISRDNAKNTVYLQMNTLKPEDTAVYYCAAYVYRVQYDFDYWGQGTQVTVSS | high polyreactivity |
| QVQLVESGAGLVQAGGSLRLSCAASGRTFYNNAMGWYRQAPGKERELVAAISQRTGRTYYADSVKGRFTISRDNAKNTVYLQMNSLKPEDTAVYYCAARTLSYEYNYWGQGTQVTVSS | high polyreactivity |
| QVQLVESGAGLVQAGGSLRLSCAASGRTFYYYAMGWYRQAPGKERELVAAISSNGGSTYADSVKGRFTISRDNAKNTVYLQMNSLKPEDTAVYYCAAEPWWQEGDYWGQGTQVTVSS | high polyreactivity |
| QVQLVESGAGLVQAGGSLRLSCAASGSIFVYNDMGWYRQAPGKERELVAAITSSGGSTYYADSVKGRFTISRDNAKKTVYLQMNSLKPEDTAVYYCNVWDRPPTGYDYWGQGTQVTVSS | low polyreactivity |
| QVQLVESGAGLVQAGGSLRLSCAASGSIFWYNAMGWYRQAPGKERELVAAITSGGTTSYADSVKGRFTISRDNAKNTVYLQMNSLKPEDTAVYYCNADAVPFPTLVTYLYDYWGQGTQVSVSS | low polyreactivity |
| QVQLVESGAGLVQAGGSLRLSCAASGSIFYVYAMGWYRQAPGKERELVAAISSSAGSTYYADSVKGRFTISRDNAKNTVYLQMNSLKPEDTAVYYCAAKVRYSLRKYYYWGQGTQVTVSS | high polyreactivity |
| QVQLVESGAGLVQAGGSLRLSCAASGSTFAINAMGWYRQAPGKERELVAAISSRGSTNYADSVKGRFTISRDNAKNTVYLQMNSLKPEDTAVYYCAADRVWGTPQAYVPSQFDYWGQGTQVTVSS | low polyreactivity |
| QVQLVESGAGLVQAGGSLRLSCAASGSTFDSYVMGWYRQAPGKERDLVAAISRRGGSTYYADSVKGRFTISRDNAKNSVYLQMNSLKPEDTAVYYCARTVGYRTLLESDSWGQGTQVTVSS | high polyreactivity |
| QVQLVESGAGLVQAGGSLRLSCAASGSTFGINAMGWYRQAHGKEREFVASISWSTGTKYYADSVKGRFTISRDNAKNTVYLQMNSLKAEDTAVYYCAAVCSRFYGLPRYYYCGQGTQVTVSS | high polyreactivity |

| Sequence | polyreactivity (PSR sort gate) |
| --- | --- |
| QVQLVESGAGLVQAGGSLRLSCAASGSTFPFYDMGWYRQAPGKEREFVAVISSSGGSTYYADSVKGRFTISRDNAKNTVYLQMNSLKPEDTAVYYCARRYPGRWYDYWGQGTQVTVSS | high polyreactivity |
| QVQLVESGAGLVQAGGSLRLSCAASGSTFSHNAMGWYRQEPGKESELVAAISWSGGGTYADSVKGRFTISRDNAKNTVYLQMNSLIPEDTAVYYCNKVSYPSTSSSWFDYWGKGTQVTVSS | low polyreactivity |
| QVQLVESGAGLVQAGGSLRLSCAASGSTFYGYGMGWYRQAPGKERELVAAITGSGDTTYYADSVKGRFTISRDNAKNTVYLQMNSLKPEDTAVYYCNARWHAEYDYWGQGTQVTVSS | low polyreactivity |
| QVQLVESGAGLVQAGGSLRLSCAPSGRTFGYNAMGWYRQAPGKERELVATISSSTVSTSYADSVKGRFTISRDNAKNTVYLQMNSLKPEDTAVYYCNARSRVSPTERVPYDSWGHGTQVTVSS | low polyreactivity |
| QVQLVESGAGLVQAGGSLRLSCAPSGSIFWWYAMVWYRQAPGKERELVAVISGGTSTYYADSVKGRFTISRDNAKNTVYLQMNSLKPEDTAVYYCNADVFSKVSYFRYIEYDYWGQGTQVTVSS | high polyreactivity |
| QVQLVESGAGLVQAGGSLRLSCASSGRTCDFYAMGWYRQAPGKERELVAAISSSCGSTYYADSVKGRFTISRDNAKNTVYLQMNSLKPEDTAVYYCAKDGRVHSPYDYWGQGTQVTVSS | low polyreactivity |
| QVQLVESGAGLVQAGGSLRLSCSASGRTFPGYAMGWYRQAPGKERELVATISSADSTNYADSVKGRFTISRDNGKNTVYLQMNSLKAEDTAVYYCAKRYGRNGAAAQYTGGYRYDYWGQGTQVSVSS | low polyreactivity |
| QVQLVESGARLVQAGGSLRLSCAASGRTFSTYTMGWYRQAPGKERELVAAITSSGGGTYYADSVKGRFTISRDTAKNTVFLQMNSLKPEDTAVYYCATVRTYRPPVRRGYWGQGTQVTVSS | high polyreactivity |
| QVQLVESGAVLVQAGGSLRLSCAASGGTFSGYTMGWYRQAPGKERELVAAITRSGSSTYYADSVKGRFTISRDNAKHTVYLQMNSLKPEDTAVSYCAATYPTSSSSYYNRYYWGQGTQVTVSS | high polyreactivity |
| QVQLVESGEGLVQAGGSLRLSCAASGRTFDRNTMGWYTQAPGKERELVAAISSSGGSTYYADSVKGRFTISRDNAKNTVYLQMNSLKPEDTAVYYCAVRSRQYFRYGYDYWGQGTQVTVSS | high polyreactivity |
| QVQLVESGEGLVQAGGSLRLSCAASGSTFTYNAMGWYRHAPGKERELVAAIDWDGDTTYYADSVKGRFTISRDNAKNTVYLQMNSLKPEDTAVYYCAARPKYPYYARYDYWGQGTQVTVSS | high polyreactivity |
| QVQLVESGGAFVQAGGTLRLICAASGRIFLYYAMGWYRHAPGKERELFAAIRISGGSTYYADSVKGRFTISRDNAKNTVYLQMNSLNAVDPAVYYCNADHKTIYPKYRGRFYYWGQGTQVTVTS | high polyreactivity |
| QVQLVESGGAIVQAGGSLRLICAASGSIFYIYAMGWYRQAPGKERELVASITFSGDITYYADSVKGRFTISRDNAKYTVYLQMNSLKPEDTAVYYCAADYHEQSYAVTYDYWGQGTKVTVSS | low polyreactivity |
| QVQLVESGGALFQAGGSLRLSCAASGRIFTIYASRWYRQAPGKATELVATISRRGGSTYYADSVKGRFTISRDNAKNNVYLQMNSLKPEVSAVYYCAADSVITWWAYDYWGQGTQVTVSS | high polyreactivity |
| QVQLVESGGALVQAGGRLRLSCAASGLTLHRYTMGWYRQAPGKERELVAVITYGGGNTYYADSVKGRFTISRDNAKNTVYLQMNSLKPEDNAVYYCAARYPPFYWYDYWGQGTQVSVSS | low polyreactivity |
| QVQLVESGGALVQAGGSIRISCAASGSIFRDYAMGWSRQAPGKERELVAVISIAGRTNYADSVKGRFTISRDNAKNTVYLQMKRLKPEDTAVYYCAADSAWYGYDYWGQGTQVTVSS | low polyreactivity |
| QVQLVESGGALVQAGGSLLLSCAASGSIFQPYAMGWYRQAPGKERELVAAITNGGSTYYADSVKGRFTISRDNAKNTVYLQMNSLNPEDTAVYYFAADVQSSHVYDYWGQGTQVTVSS | low polyreactivity |
| QVQLVESGGALVQAGGSLRLSCAASAITYRYYAMGWNRQAPGKERELVATITRSGGSTYYADSVKGRFTISRDNAKNTVYLQMNSLKPEDTAVYYCAKGLYSTRYYYWGQGTQVTVSS | high polyreactivity |
| QVQLVESGGALVQAGGSLRLSCAASGFIFYSYAMGWYRHAPGKETELVAAITEDGDSTYYADSVKGRFTISRDNAKNTVYLQMNSLKPEDSAVYYCNTDLTFNGTSGDYDYWGQGTLVTVSS | low polyreactivity |
| QVQLVESGGALVQAGGSLRLSCAASGNTFQRYTMGWYRQAPGKERELVAAITWSGGNTYYADSVKGRFTISRDNAKNSVYLQMNSLKPEDTAVYDCNADYPTTAYDYWGQGTQVTVSS | low polyreactivity |
| QVQLVESGGALVQAGGSLRLSCAASGRIFRGYAMGWYRQAPGKERELVAAISSRGSRTYYADSVKGPFTISRDNAKNTVYLQMNSLKPEDTAVYYCAADVPGVTTSYAPYDSEYWGQGSQVTVSS | high polyreactivity |
